# In PMC5719032, “Differentially evolved glucosyltransferases determine natural variation of rice flavone accumulation and UV-tolerance” (Nature Communications, 2017):
# B1: OsUGT706D1 (Oryza sativa Japonica Group) (protein)
# chain: MESKPSRNVVLYAAMGAGHLLPMVELAKLFLTRGLDVTIAVPATPGSGTTGSPTIAGIAASNPSITFHHLPPPPSCADPDPNPLLLMLDVLRRSVPSLASLLRSIPSVAALVLDIFCAEAVDAAAALHVPAYIYFTSAAGAFAASLGLMHHYSTTTTNLRDMGKALLRFPGVPPIPASDMPSLVQDREGRFYKARVKLYARAMEASGVLLNTYEWLEARAMGALREGACSPDRPTPPVYCVGPLVASGEEEGGGVRHACLAWLDAQPARSVVFLCFGSMGSFSAAQLKEIARGLESSGHRFLWVVRSPRQDPANLLEHLPEPDLAALLPEGFLERTADKGMVVKSWAPQAKVLRHAATAAFVTHCGWNSTLEGITAGVPLLCWPLYAEQRMNKVFIVEEMKVGVVIDGYDEEMVSAEEVEAKVRLVMESEEGGKLLERLAVARAKAVEALAEEGPSRVAFDEFIDRLVTSE
# notes: full cDNA in pGEX-6p-1, N-terminal GST fusion, E. coli BL21(DE3), glutathione Sepharose purified
# B2: OsUGT707A2 (Oryza sativa Japonica Group) (protein)
# chain: MAPAMASSAATVVLIPFCVSGHLTPMLEVGKRMLRSRCCGDDDDGRPAMSLTVLLAQLPESHRAPEIDEIIRREAAGASEHSGFDVRFHCLPAEELPDFRGGEDFISRFMQQHASHAREAIAGLESRVAAVVLDWFCTTLLDVTRDLGLPGYVFFTSAASMLSLLLRLPALDKEVAVDFEEMGGAVDLPGLPPVPAALLPTPVMKKGCNYEWLVYHGSRFMEAAGIIVNTVAELEPAVLEAIADGRCVPGRRVPAIYTVGPVLSFKTPPEKPHECVRWLDAQPRASVVFLCFGSMGSFAPPQVLEIAAGLERSGHRFLWVLRGRPPAGSPYPTDADADELLPEGFLERTKGRGMVWPTWAPQKDILAHAAVGGFVTHGGWNSTLESLWHGVPMAPWPLYAEQHLNAFELVRDMGVAVEMEVDRKRGNLVEAAELERAVRCLMDEGSEEGRMAREKAAAAKAACRNAVDGGGSSIAALRKLTQEMAHMSSI
# notes: as for B1
# Legend:
# purified protein [1] = substrate: O=c1cc(-c2ccc(O)cc2)oc2cc(O)cc(O)c12; assay: purified protein; details: 1.5 mM UDP-glucose, 5 mM MgCl2, Tris-HCl pH 7.4, 37 °C
# purified protein [2] = substrate: O=c1c(O)c(-c2ccc(O)cc2)oc2cc(O)cc(O)c12; assay: purified protein; details: 1.5 mM UDP-glucose, 5 mM MgCl2, Tris-HCl pH 7.4, 37 °C, 3-O-glucosylation
# [3] = substrate: O=c1cc(-c2ccc(O)c(O)c2)oc2cc(O)cc(O)c12; assay: purified protein, by the assay type; design: HPLC glucoside product formation by recombinant GST-UGT, 1.5 mM UDP-glucose, Michaelis-Menten fit; details: pH 8.0; 20.0 °C
# Experimental: (§1) To determine the kinetic constants of UGTs for flavonoid acceptors, their activities were determined using 0 to 400 μM different flavonoids at a fixed concentration of 1.5 mM UDP-glucose. Flavonoids were purchased from BioBioPha Co., Ltd (www.biobiopha.com/) and UDP-sugars were purchased from Sigma-Aldrich, USA. All Kinetic parameters were calculated using Michaelis-Menten model (Sigma Plot, version 12.5). All the reactions were run in duplicate, and each experiment was repeated twice. The full cDNA of UGTs from Nipponbare (O. sativa L. spp. japonica) were cloned into the pGEX-6p-1 expression vector (Novagen) with a glutathione S-transferase tag. Recombinant proteins were expressed in BL21 (DE3) cells (Novagen) following induction by addition of 0.1 mM isopropy-β-D-thiogalactoside (IPTG) and growing continually for 16 h at 20 °C. Cells were collected and pellets were resuspended in lysis buffer (50 mM Tris-HCl, pH 8.0, 400 mM NaCl). The cells were disrupted by the high pressure cracker and cell debris was removed by centrifugation (14000 g, 1 h). Glutathione Sepharose 4B agarose (GE Healthcare) was added to the supernatant containing the target proteins. After incubation for 1 h, the mixture was transferred into a disposable column and washed extensively with lysis buffer (5 column volumes). Target proteins in collections were confirmed by SDS-PAGE and purified recombinant proteins were selected for enzyme assays and kinetics determination.
# [4] = substrate: O=c1c(O)c(-c2ccc(O)c(O)c2)oc2cc(O)cc(O)c12; assay: purified protein, by the assay type; design: HPLC glucoside product formation by recombinant GST-UGT, 1.5 mM UDP-glucose, Michaelis-Menten fit; details: pH 8.0; 20.0 °C
# Experimental: as §1
Protein,Km (purified protein [1]; 7-O-glucosylation),kcat (purified protein [1]; 7-O-glucosylation),Km (purified protein [2]),kcat (purified protein [2]),Km [3],kcat [3],kcat/Km [3],Km [4],kcat [4],Km (purified protein [1]; 5-O-glucosylation),kcat (purified protein [1]; 5-O-glucosylation),kcat/Km [4]
B1,17.7 ± 1.3 µM,0.7 ± 0.02 s⁻¹,16.8 ± 1.3 µM,0.4 ± 0.01 s⁻¹,11.6 ± 0.35 µM,0.4 ± 0.2 s⁻¹,40000 M⁻¹ s⁻¹,11.9 ± 1.9 µM,0.07 s⁻¹,–,–,–
B2,–,–,6.7 ± 0.7 µM,0.20 ± 0.01 s⁻¹,1.5 ± 0.5 µM,0.05 ± 0.01 s⁻¹,30000 M⁻¹ s⁻¹,5.1 ± 0.6 µM,0.06 ± 0.01 s⁻¹,8.9 ± 1.8 µM,0.4 ± 0.06 s⁻¹,10000 M⁻¹ s⁻¹
